We go through eight molecules from US20070299013A1 (CLEVELAND STATE UNIVERSITY, published 2007).

Where no end group is shown, it is not given here. [ ]: non-standard residue; d: D form. sY = N[C@@H](Cc1ccc(OS(=O)(=O)O)cc1)C(=O)O

For assay [1], the target named is T1, N-alpha-[(acetylthio)acetyl]-Phe-Pro-Arg-thrombin (ATA-FPR-thrombin) coupled to agarose through the active … (UniProt P00734 328-622). Briefly: chromatography on 2.5 ml thrombin-agarose, LC/MS of fraction #7 (before the salt elution). As to the method: (§1) Since some of the peptides contain aromatic amino acid residues, their concentration was also measured by optical density.
(§2) Each run represents 400 μg of peptide. […] Elution was performed with 2M NaCl and was started at the point indicated by the arrow (fraction #30). The presence of the peptides in the corresponding fractions was monitored by absorbance at 280 nm (shown on the y axis) and by LC/MS (inset).

For assay [2], the target named is T2, human prothrombin (human, UniProt P00734 44-622). In words: cell-based or functional assay.
Assay [3] deals with T2, human prothrombin. Briefly: calculated from IC50 of prothrombinase inhibition, IC50=Ki(1+S0/Km), Km 0.4 µM, prothrombin 350 nM. As to the method:
The buffer used in all cases was composed of 20 mM Hepes, 0.15 M NaCl, 5 mM CaCl₂, pH 7.4 [HBS(Ca²⁺), “assay buffer”]. […] All experiments were performed in triplicates or as indicated. The concentration of each peptide given in the figures and figure legends is their final concentration in the assay. The data were stored using the software FL WinLab (Perkin-Elmer Corp, Norwalk Conn.) and further analyzed and plotted with the software Prizm (GraphPad, San Diego, Calif.). In some cases the data were also analyzed and plotted using DeltaGraph (DeltaPoint, Monterey, Calif.).

Assay [4] addresses T1, N-alpha-[(acetylthio)acetyl]-Phe-Pro-Arg …. In words: chromatography on 2.5 ml thrombin-agarose, LC/MS of fractions. The protocol:
as §1, §2

Assay [5] concerns the target T2, human prothrombin. In words: kinetic analysis of prothrombinase inhibition.
Assay [6] deals with T1, N-alpha-[(acetylthio)acetyl]-Phe-Pro-Arg …. In words: chromatography on 2.5 ml thrombin-agarose, A280. As to the method:
as §1, §2

The target of assay [7] is T2, human prothrombin. Briefly: calculated from IC50 (1.6 µM) of prothrombinase inhibition, IC50=Ki(1+S0/Km). As to the method:
All experiments were performed in triplicates or as indicated. The concentration of each peptide given in the figures and figure legends is their final concentration in the assay. The data were stored using the software FL WinLab (Perkin-Elmer Corp, Norwalk Conn.) and further analyzed and plotted with the software Prizm (GraphPad, San Diego, Calif.). In some cases the data were also analyzed and plotted using DeltaGraph (DeltaPoint, Monterey, Calif.).

Consider NRLAAALGIR (Last of five overlapping 10-mers) [HC5 peptide (from region 680-709 of human factor Va heavy chain)], for which the binding result in assay [1] is “no binding (tested: 400 µg of peptide)”. Turning to DYDYQNRLAA (Synthetic 10-residue peptide) [HC4 peptide (amino acid residues 695-704 of human factor Va heavy chain)], the “IC50 of inhibition of prothrombinase activity (DAPA thrombin formation assay)” value in assay [2] worked out at 10 µM. Besides, the Ki in assay [3] was 5.3 µM. With LEPEDEESDA [HC2 peptide (from region 680-709 of human factor Va heavy chain)], the binding result in assay [4] is on record as “no binding (tested: 400 µg of peptide)”. In the case of EESDADYDYQ (Synthetic 10-residue peptide) [HC3 peptide (amino acid region 690-699 of human factor Va heavy chain)], the “IC50 of inhibition of prothrombinase activity (DAPA thrombin formation assay)” value in assay [2] was 12 µM. Moreover, in assay [3], the Ki is 6.3 µM. Take KMHDRLEPED (First of five overlapping 10-mers) [HC1 peptide (from region 680-709 of human factor Va heavy chain)]: the binding result in assay [4] is recorded as “no binding (tested: 400 µg of peptide)”.

B1: double sulfonated peptide DYDYQ (1, 2), DY(-SO3)DY(-SO3)Q (peptide)
peptide: D[sY]D[sY]Q
notes: Sulfonated form of the factor Va 695-699 motif; also called D5Q1,2
As for B1, the binding result in assay [5] is “binds”.

B2: P15H control pentadecapeptide (amino acid sequence 337-351 from the middle portion of human factor Va heavy chain) (peptide)
peptide: PVIPANMDKKYRSQH
notes: Negative control peptide; also called control peptide
Regarding B2, in assay [6], the binding result is reported as “no binding (tested: 400 µg of peptide)”.

B3: pentapeptide DYDYQ (Asp695-Tyr696-Asp697-Tyr698-Gln699 of human factor Va heavy chain) (peptide)
peptide: DYDYQ
notes: Synthetic, non-sulfonated pentapeptide; also called D5Q
Turning to B3, the “IC50 of inhibition of prothrombinase function” value in assay [2] was 1.6 µM. In assay [7], the Ki was 0.85 µM.
